In experiment [1] the target is endophilin SH3 (SH3G2_HUMAN), Q99962. Put plainly: SPOT array.
Experiment [2] deals with T1, amphyphisin SH3 (AMPH_HUMAN), P49418.
T1 chain: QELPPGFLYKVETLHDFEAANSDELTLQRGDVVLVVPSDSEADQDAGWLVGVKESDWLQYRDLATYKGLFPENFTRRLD
As to the kind of experiment: SPOT array.

B1: Q99700 579-593 (peptide)
chain: PTRPPSRPPSRPSR
With B1, the results for the normalised SPOT signal, Boehringer light units (BLU); mean over the file's lines of this peptide in experiment [1] and in experiment [2] were 19900 and 23500, respectively.

B2: Q9Y2H3 1375-1388 (peptide)
chain: PVVLPWRPARAHSS
For B2, the values for the normalised SPOT signal, Boehringer light units (BLU); mean over the file's lines of this peptide in experiment [1] and in experiment [2] were 2120 and 8510, respectively.

B3: Q9UDM5 470-484 (peptide)
chain: PSQVPPRPPPPRLP
Turning to B3, the normalised SPOT signal, Boehringer light units (BLU); mean over the file's lines of this peptide came to 12300 in experiment [1] and 2340 in experiment [2].

B4: Q99700 584-597 (peptide)
chain: PSRPPSRPSRPPSH
With B4, the normalised SPOT signal, Boehringer light units (BLU); mean over the file's lines of this peptide in experiment [1] turned out to be 11400; in experiment [2] it was 11900.

B5: Q99785 97-111 (peptide)
chain: PSRPPRRPPWGRGS
As to B5, the normalised SPOT signal, Boehringer light units (BLU); mean over the file's lines of this peptide in experiment [1] amounted to 12300; in experiment [2], 10100.

B6: Q00325 36-49 (peptide)
chain: PTGQPRRPRNLAAA
In the case of B6, the normalised SPOT signal, Boehringer light units (BLU); mean over the file's lines of this peptide was determined as 254 in experiment [1] and 66 in experiment [2].

B7: O75916 510-523 (peptide)
chain: PSRFIRRPSTTISP
Turning to B7, the normalised SPOT signal, Boehringer light units (BLU); mean over the file's lines of this peptide in experiment [1] came to 364; in experiment [2], 42.

B8: Q9HBS1 152-165 (peptide)
chain: PSQVPRRPHHTPFQ
Take B8: the results for the normalised SPOT signal, Boehringer light units (BLU); mean over the file's lines of this peptide in experiment [1] and in experiment [2] were 1670 and 43.1, respectively.

B9: Q9H3T3 825-838 (peptide)
chain: PTGSLRRPLGPHAP
Consider B9, for which the normalised SPOT signal, Boehringer light units (BLU); mean over the file's lines of this peptide in experiment [1] was determined as 35; in experiment [2], 15.7.

B10: Q03252 424-437 (peptide)
chain: PWQRPKRPGHGHGW
Consider B10, for which the results for the normalised SPOT signal, Boehringer light units (BLU); mean over the file's lines of this peptide in experiment [1] and in experiment [2] were 204 and 43, respectively.

B11: Q9BQI8 153-166 (peptide)
chain: PVAVLKRPSQLSRK
As to B11, the figures for the normalised SPOT signal, Boehringer light units (BLU); mean over the file's lines of this peptide in experiment [1] and in experiment [2] were 72.6 and 46.3, respectively.

B12: Q9HC35 168-181 (peptide)
chain: PTKSIKRPSPAEKS
Take B12: the results for the normalised SPOT signal, Boehringer light units (BLU); mean over the file's lines of this peptide in experiment [1] and in experiment [2] were 75.3 and 7.4, respectively.

B13: P48023 33-46 (peptide)
chain: PTSVPRRPGQRRPP
On to B13, for which the normalised SPOT signal, Boehringer light units (BLU); mean over the file's lines of this peptide in experiment [1] was 870; in experiment [2], 32.6.

B14: P47985 41-54 (peptide)
chain: PVLDLKRPFLSRES
Consider B14, for which the normalised SPOT signal, Boehringer light units (BLU); mean over the file's lines of this peptide in experiment [1] is 50.1; in experiment [2], 47.

B15: Q9H3D6 83-96 (peptide)
chain: PVEAIKRPSPDEPM
With B15, the values for the normalised SPOT signal, Boehringer light units (BLU); mean over the file's lines of this peptide in experiment [1] and in experiment [2] were 101 and 42.3, respectively.

B16: Q8WVQ3 114-128 (peptide)
chain: PSPLPPKPPFPGPG
Turning to B16, the normalised SPOT signal, Boehringer light units (BLU); mean over the file's lines of this peptide stood at 843 in experiment [1] and 43.5 in experiment [2].

B17: O75376 1024-1038 (peptide)
chain: PTTRPTRPPPPLIP
B17: the normalised SPOT signal, Boehringer light units (BLU); mean over the file's lines of this peptide is 4420 in experiment [1] and 1510 in experiment [2].

B18: Q16671 539-552 (peptide)
chain: PTILPSRPQRSASH
Regarding B18, the normalised SPOT signal, Boehringer light units (BLU); mean over the file's lines of this peptide in experiment [1] came out at 9690; in experiment [2], 17500.

B19: Q8TDP0 823-837 (peptide)
chain: PSPSPARPPGTSPP
As for B19, the normalised SPOT signal, Boehringer light units (BLU); mean over the file's lines of this peptide in experiment [1] is 67.6; in experiment [2] it was 31.2.

B20: Q9P2Q1 393-407 (peptide)
chain: PVVPPRRPPPPKKT
Turning to B20, the normalised SPOT signal, Boehringer light units (BLU); mean over the file's lines of this peptide in experiment [1] is 16000; in experiment [2], 7830.

B21: Q9NZM4 744-758 (peptide)
chain: PTRPPSRPPSRPQS
Consider B21, for which the normalised SPOT signal, Boehringer light units (BLU); mean over the file's lines of this peptide came out at 5850 in experiment [1] and 7120 in experiment [2].

B22: Q14968 167-180 (peptide)
chain: PWRGFSRPSRFFSS
For the molecule B22, the normalised SPOT signal, Boehringer light units (BLU); mean over the file's lines of this peptide is 218 in experiment [1] and 3040 in experiment [2].

B23: O95327 205-218 (peptide)
chain: PTSSPHRPHRLPLA
For B23, the normalised SPOT signal, Boehringer light units (BLU); mean over the file's lines of this peptide in experiment [1] stood at 166; in experiment [2], 248.

B24: O75817 27-40 (peptide)
chain: PSRLPRRPNDIYVN
Turning to B24, the normalised SPOT signal, Boehringer light units (BLU); mean over the file's lines of this peptide in experiment [1] was determined as 41.9; in experiment [2], 38.8.

B25: Q9HBF9 133-146 (peptide)
chain: PSPNFKRPYQRFQW
On to B25, for which the normalised SPOT signal, Boehringer light units (BLU); mean over the file's lines of this peptide in experiment [1] came out at 71.3; in experiment [2], 43.9.

B26: Q9C098 170-183 (peptide)
chain: PTQELRRPSKSMDK
Consider B26, for which the results for the normalised SPOT signal, Boehringer light units (BLU); mean over the file's lines of this peptide in experiment [1] and in experiment [2] were 35 and 48.6, respectively.

B27: Q99755 29-42 (peptide)
chain: AASGIKRPMASEVL
Consider B27, for which the normalised SPOT signal, Boehringer light units (BLU); mean over the file's lines of this peptide is 116 in experiment [1] and 48.8 in experiment [2].

B28: Q9NTY7 879-893 (peptide)
chain: ASQSPKKPPAKDPL
Regarding B28, the normalised SPOT signal, Boehringer light units (BLU); mean over the file's lines of this peptide in experiment [1] was determined as 60.6; in experiment [2] it was 57.6.

B29: P47712 557-570 (peptide)
chain: PYPLILRPQRGVDL
Consider B29, for which the normalised SPOT signal, Boehringer light units (BLU); mean over the file's lines of this peptide amounted to 282 in experiment [1] and 351 in experiment [2].

B30: Q9Y5N2 203-217 (peptide)
chain: QAAFPRRPPPRGTR
Regarding B30, the results for the normalised SPOT signal, Boehringer light units (BLU); mean over the file's lines of this peptide in experiment [1] and in experiment [2] were 6430 and 6180, respectively.

B31: Q9NUD3 48-61 (peptide)
chain: PVLSPRRPWPSLSW
Take B31: the values for the normalised SPOT signal, Boehringer light units (BLU); mean over the file's lines of this peptide in experiment [1] and in experiment [2] were 109 and 101, respectively.

B32: Q12947 91-104 (peptide)
chain: ASSGLRRPEKPPYS
As to B32, the normalised SPOT signal, Boehringer light units (BLU); mean over the file's lines of this peptide in experiment [1] came out at 106; in experiment [2], 57.5.

B33: Q9BVH8 774-788 (peptide)
chain: PTEGPRRPPPRPPS
On to B33, for which the normalised SPOT signal, Boehringer light units (BLU); mean over the file's lines of this peptide was determined as 3050 in experiment [1] and 3310 in experiment [2].

B34: Q9H013 786-800 (peptide)
chain: PSQPPPRPPPDYLR
B34: the normalised SPOT signal, Boehringer light units (BLU); mean over the file's lines of this peptide in experiment [1] is 1790; in experiment [2] it was 68.9.

B35: BAC03761 161-175 (peptide)
chain: ASSRPGRPPKRSLG
With B35, the normalised SPOT signal, Boehringer light units (BLU); mean over the file's lines of this peptide in experiment [1] amounted to 20200; in experiment [2], 6850.

B36: O75592 2352-2365 (peptide)
chain: ASPTPKRPSENMLI
On to B36, for which the normalised SPOT signal, Boehringer light units (BLU); mean over the file's lines of this peptide in experiment [1] amounted to 43.3; in experiment [2] it was 43.4.

B37: Q9Y618 2172-2185 (peptide)
chain: PVLDLRRPPSDLYL
For the molecule B37, the results for the normalised SPOT signal, Boehringer light units (BLU); mean over the file's lines of this peptide in experiment [1] and in experiment [2] were 63.7 and 35.4, respectively.

B38: P51511 317-330 (peptide)
chain: PTVTPRRPGRPDHR
Turning to B38, the normalised SPOT signal, Boehringer light units (BLU); mean over the file's lines of this peptide is 420 in experiment [1] and 5240 in experiment [2].
